Source: paper PMC4581966 (Cytokine & growth factor reviews, 2015)

Assays:
[1] = biological target: T1, Ebi3 subunit of mouse recombinant IL-35 (rIL-35) (mouse), O35228; test: SEC; details: remark: other sources report otherwise
T1 chain: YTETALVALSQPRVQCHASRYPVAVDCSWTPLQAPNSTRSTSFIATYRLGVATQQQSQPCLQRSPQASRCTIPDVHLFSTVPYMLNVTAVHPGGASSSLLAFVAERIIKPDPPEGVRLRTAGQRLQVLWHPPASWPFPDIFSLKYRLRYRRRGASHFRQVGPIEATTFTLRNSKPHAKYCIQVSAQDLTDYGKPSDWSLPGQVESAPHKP

[2] = biological target: the molecule itself; test: SEC

Binder	stoichiometry N [1]	stoichiometry N [2]
Ebi3 subunit of mouse recombinant IL-35 (rIL-35), O35228 19-228 (natural protein) YTETALVALSQPRVQCHASRYPVAVDCSWTPLQAPNSTRSTSFIATYRLGVATQQQSQPCLQRSPQASRCTIPDVHLFSTVPYMLNVTAVHPGGASSSLLAFVAERIIKPDPPEGVRLRTAGQRLQVLWHPPASWPFPDIFSLKYRLRYRRRGASHFRQVGPIEATTFTLRNSKPHAKYCIQVSAQDLTDYGKPSDWSLPGQVESAPHKP	2	–
IL-12p35 subunit of mouse recombinant IL-35 (rIL-35) (natural protein, UniProt P43431 23-215, looked up) RVIPVSGPARCLSQSRNLLKTTDDMVKTAREKLKHYSCTAEDIDHEDITRDQTSTLKTCLPLELHKNESCLATRETSSTTRGSCLPPQKTSLMMTLCLGSIYEDLKMYQTEFQAINAALQNHNHQQIILDKGMLVAIDELMQSLNHNGETLRQKPPVGEADPYRVKMKLCILLHAFSTRVVTINRVMGYLSSA	–	2
